Source: the supplement of paper PMC11780869

Tested on: Bacillus subtilis
Experiment: cleaved RNA product abundance (RNA/gDNA barcode ratio) relative to median wild-type variant (ratio to wild type); higher = more accumulation of the downstream cleavage product
How it was run: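 Reporter mRNAs (truncated aprE or tetM) carrying barcoded, mutagenized RNase Y cleavage-site windows were made from oligos with a 9% error rate and integrated into the B. subtilis chromosome. Cultures grew in LB at 37°C from OD600 0.0003 to 0.3. Cleaved RNA was gel-selected, reverse transcribed and barcode-sequenced alongside genomic DNA barcodes, with UMI collapsing. Cleaved product abundance is the RNA:gDNA barcode ratio per variant, scaled to the median wild-type variant.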

[1] = experiment (reporter, strain, medium): exp 2b: truncated aprE reporter, strain BJT200, cleavage site: cggR-gapA (positions -7 to +36 mutated)
[2] = experiment (reporter, strain, medium): exp 4a: truncated aprE reporter, strain BJT201 with 2% xylose (RNase J1 expressed), cleavage site: cggR-gapA (positions -7 to +36 mutated)
[3] = experiment (reporter, strain, medium): exp 8a: truncated aprE reporter, strain BJT201 with 2% xylose (RNase J1 expressed), cleavage site: glnRA (positions -5 to +31 mutated)

Sequence	cleaved RNA product abundance [1]	cleaved RNA product abundance [2]	cleaved RNA product abundance [3]
ACAGACGAAGGAGCCGCAAAGAAGTTATTAAGGGACGAATAATCCCTCATTATAAATATCTCTCACTTATTTAAA	0.215	0.326	
ACAGACGAAGGAGCCGCCAAGAAGTTATTAAGGGATGAATAATCCCTCAATATAAATATCTCTCACTTATTTAAA	0.985	0.872	
CGACATGTCCCGCTTCTTTCATTAATCCGTTACCAACTGTTTTGCTATATACATCTACCTTTTAAGAGGAGGAAT			0.23
ACAGACGAAGGAGCCGCAAAGAAGTTATTAAGGGATGAATAATGCCTCACTATAAATATCTCTCACTTATTTAAA		0.142	
CGACATGTCCCGCTTCTTTCATTAATCGGTTAGAAACTGTTTTGCTATATACATTTACCTTTTAAGAGGAGGAAT			0.222
CGACATGTCCCGCTTCTTTCATTAATCCGTTAGCAAATGTTTTGCTATATACATTTAACTTTTAAGAGGAGGAAT			1.03
ACAGACGAAGGAGCCGCAAAGAAGTTATTAAACGATGAATAATCTCTCAATATAAATATCTCTCACTTATTTAAA	0.109	0.179	
ACAGACGAAGGAGCCGCAAACAAGTTATAAAGGGATGAATAATCCCTCAATATAAATATCTCTCACTTATTTAAA		0.408	
CGACATGTCCCGCTTCTTTCATTAATCCGTTAGCAACTGTTTTACTATATACAATTACCTTTTAAGAGGAGGAAT			0.613
CGACATGTCCCGCTTCTTTCATTAATCCGTTAGCAACTGTATTGCTATATACATATACCTTTTAAGAGGAGGAAT			0.755
ACAGACGAAGGAGCCGCAAAGTAGTTATTAACGGATGAATAATCCCTCAATATAAATATCTCTCACTTATTTAAA		0.164	
ACAGACGAAGGAGCCGCAAAGTAGTTATTAAGGGATGAATAATCCATCAATATAAATATCTCTCACTTATTTAAA	0.187	0.161	
ACAGACGAAGGAGCCGCAAACAAGTTATTAAGGGACGAATAATCCCTCAATATAAATATCTCTCACTTATTTAAA		0.279	
ACAGACGAAGGAGCCGCAAAGAAGTTATTAACGGTTGAATAATCCCTCAATATAAATATCTCTCACTTATTTAAA	0.0654	0.113	
ACAGACGAAGGAGCCGCAAAGAAGTTATTAAGGGATGAATAATCACTGAATATAAATATCTCTCACTTATTTAAA	0.0838	0.0697	
ACAGACGAAGGAGCCGCAAAGAAGTTATTAAGGTATGAATGATCCCTCAATATAAATATCTCTCACTTATTTAAA	0.0901	0.0732	
CGACATGTCCCGCTTCTTTCATTAATCCGTTAGCAACTGTTTTGCTTTATACATTTACCTTTTAAGAGGAGGAAT			0.338
ACAGACGAAGGAGCCGCAAAGAAGTTATTAATGGATGAATAATCCCTCAATATAAATAACTCTCACTTATTTAAA	0.115	0.23	
ACAGACGAAGGAGCCGCAAAGAAGTTTTTAAGGGTTGAATAATCCCTCAATATAAATATCTCTCACTTATTTAAA	0.166	0.271	
ACAGACGAAGGAGCCGCAAAGAAGTTATTAAGGGATGAATAAATCCCTCAATATAAATATCTCTCACTTATTTAA		0.537	

Sequence	cleaved RNA product abundance [1]	cleaved RNA product abundance [2]	cleaved RNA product abundance [3]
CGACATGTCCCGCTTCTTTCATTAATCCGTTAGCTGCTGTTTTGCTATATACATTTACCTTTTAAGAGGAGGAAT			0.658
ACAGACGAAGGAGCCGCAAAGAGGTTATTAAGCGATGAATAATCCCTCAATATAAATATCTCTCACTTATTTAAA		0.0624	
ACAGACGAAGGAGCCGCAAAGGAGTTATTAATGGATGAATAATCCCTCAATATAAATATCTCTCACTTATTTAAA		0.114	
CGACATGTCCCGCTTCTTTCATTACTCCGTTAGCAACTGTTTTGCTCTATACATTTACCTTTTAAGAGGAGGAAT			0.288
ACAGACGAAGGAGCCGCAAAGAAGTTATTAAGGGATAAATAATCCCCCAATATAAATATCTCTCACTTATTTAAA		0.22	
CGACATGTCCCGCTTCTTTCATTAATCCGTTAGCAACTGTTTTGCAATATCCATTTACCTTTTAAGAGGAGGAAT			0.156
ACAGACGAAGGAGCCGCAAAGAAGTGATTAAGGGATGAATAATCCCACAATATAAATATCTCTCACTTATTTAAA		0.226	
ACAGACGAAGGAGCCGCAAAGAAGTTATTAAGGCATGAATAATCCCTCAATATAAATAACTCTCACTTATTTAAA	0.0904	0.111	
ACAGACGAAGGAGCCGCAAAGAAGTTATTAAGGGATGATTAATCCCTCAATTTAAATATCTCTCACTTATTTAAA		0.0965	
ACAGACGAAGGAGCCGCAAAGAAATTATTAAGGGATGAATAATAACTCAATATAAATATCTCTCACTTATTTAAA		0.168	
ACAGACGAAGGAGCCGCAAAGAAGTTATTAAGGGAAGAAAAATCCCTCAATATAAATATCTCTCACTTATTTAAA	0.684	0.436	
CGACATGTCCCGCTTCTTTCATTAATCAGTTAGCATCTGTTTTGCTATATACATTTACCTTTTAAGAGGAGGAAT			0.725
ACAGACGAAGGAGCCGCAAAAAAGTTATTAAGGGATGAATAATCCCTCATTATAAATATCTCTCACTTATTTAAA	0.293	0.417	
ACAGACGAAGGAGCCGCAAAGAAGTTATTAAGCGATGAATAATCCCTAAATATAAATATCTCTCACTTATTTAAA	0.132	0.207	
ACAGACGAAGGAGCCGCTAAGAAGTTATTAAGGGATGAATAATCCATCAATATAAATATCTCTCACTTATTTAAA		0.186	
ACAGACGAAGGAGCCGCAAATAAGTTATTAAGGGATGAATAATCCTTCAATATAAATATCTCTCACTTATTTAAA	0.395		
ACAGACGAAGGAGCCGCAAAGAAGATTTTAAGGCATGAATAATCCCTCAATATAAATATCTCTCACTTATTTAAA		0.143	
CGACATGTCCCGCTTCTTTCATTAATCCGTTGGCAACTGTTTTGCTATATACATTTACTTTTTAAGAGGAGGAAT			0.61
ACAGACGAAGGAGCCGCAAAGAACTTATTAAGGGATGAATAATCCCTCAATATAAATAACTCTCACTTATTTAAA	0.444	0.566	
CGACATGTCCCGCTTCTTTCATTAATCCGTTAGCAACTGTTTTTCTATATACATTTAACTTTTAAGAGGAGGAAT			0.675

Sequence	cleaved RNA product abundance [1]	cleaved RNA product abundance [2]	cleaved RNA product abundance [3]
ACAGACGAAGGAGCCGCAAAGAAGTTATTAAAGGATGAATAATCCCTCCTTATAAATATCTCTCACTTATTTAAA		0.0791	
ACAGACGAAGGAGCCGCAAAGAAGTTATTAAAGGATGAATAATCCCTTAATATAAATATCTCTCACTTATTTAAA	1.16	1.06	
ACAGACGAAGGAGCCGCAAAGAAGTTCTTAAGGGATGAATAATCCCTCAATTTAAATATCTCTCACTTATTTAAA		0.0838	
CGACATGTCCCGCTTCTTTCATTAATCCGTTAGCAACTGTTTTGCTATATACATATACATTTTAAGAGGAGGAAT			0.68
ACAGACGAAGGAGCCGCAAGGTAGTTATTAAGGGATGAATAATCCCTCAATATAAATATCTCTCACTTATTTAAA		1	
ACAGACGAAGGAGCCGCAAAGAAGTTATTAAGGGCTGAATAATCCATCAATATAAATATCTCTCACTTATTTAAA	0.084	0.0979	
ACAGACGAAGGAGCCGCAAAGAAGTTATTAACGGATGAAGAATCCCTCAATATAAATATCTCTCACTTATTTAAA		0.17	
ACAGACGAAGGAGCCGCAAAGAAGTAATTAAGGTATGAATAATCCCTCAATATAAATATCTCTCACTTATTTAAA	0.0974	0.112	
ACAGACGAAGGAGCCGCAAAGAAGTTATTAAGGGTTGAATGATCCCTCAATATAAATATCTCTCACTTATTTAAA	0.298		
ACAGACGAAGGAGCCGCAAAGAAGTTATGAAGGGATGAATAATCCCTCAATATTAATATCTCTCACTTATTTAAA		0.125	
ACAGACGAAGGAGCCGCAAAGAAGTAATTAAGGGAAGAATAATCCCTCAATATAAATATCTCTCACTTATTTAAA	0.117	0.263	
ACAGACGAAGGAGCCGCAAAGAAGTTATTAAGGGATGAATAATTCCTCAACATAAATATCTCTCACTTATTTAAA	0.134	0.183	
CGACATGTCCCGCTTCTTTCATTAATCCGTGAGCAACTGTTTTGCTATATACATTTACCTTTTAAGAGGAGGAAT			0.549
ACAGACGAAGGAGCCGCAAAAAAGTTATTAAGGGATGAATAATCCCTGAATATAAAGATCTCTCACTTATTTAAA	0.364		
ACAGACGAAGGAGCCGCAAAGAAGTTATTAAGAGATGAATAATCCCTCCATATAAATATCTCTCACTTATTTAAA	0.0792		
ACAGACGAAGGAGCCGCTAAGAAGTAATTAAGGGATGAATAATCCCTCAATATAAATATCTCTCACTTATTTAAA		0.309	
CGACATGTCCCGCTTCTTTCATTAATCCGTAAGCAACTGTTTTGCTATATACATTAACCTTTTAAGAGGAGGAAT			0.756
CGACATGTCCCGCTTCTTTCATTAATCCATTAGCAACTGTTTTGCTATATACATTTACATTTTAAGAGGAGGAAT			0.688
ACAGACGAAGGAGCCGCAAAGAAGTTATTAAGGGTTGAATAATCCCTCAATATACATATCTCTCACTTATTTAAA		0.404	
ACAGACGAAGGAGCCGCAAAGAAGTTATTAATGGATGATTAATCCCTCAATATAAATATCTCTCACTTATTTAAA		0.138	
